US20050100540A1, “Platelet-activating factor acetylhydrolase” (priority 1993, published 2005)

What was measured:
PAF-induced foot edema = experiment: PAF-induced rat foot edema model; format: in vivo
Experimental: (§1) Six to eight-week-old female Long Evans rats (Charles River, Wilmington, Mass.), weighing 180-200 grams, were used for all experiments. Prior to experimental manipulations, animals were anesthetized with a mixture of the anesthetics Ketaset (Fort Dodge laboratories, Fort Dodge, Iowa), Rompun (Miles, Shawnee Mission, Kans.), and Ace Promazine (Aveco, Fort Dodge, Iowa) administered subcutaneously at approximately 2.5 mg Ketaset, 1.6 mg Rompun, 0.2 mg Ace Promazine per animal per dose. Edema was induced in the foot by administration of either PAF or zymosan as follows. PAF (Sigma #P-1402) was freshly prepared for each experiment from a 19.1 mM stock solution stored in chloroform/methanol (9:1) at −20° C. Required volumes were dried down under N2, diluted 1:1000 in a buffer containing 150 mM NaCl, 10 nM Tris pH 7.5, and 0.25% BSA, and sonicated for five minutes. Animals received 50 μl PAF (final dose of 0.96 nmoles) subcutaneously between the hind foot pads, and edema was assessed after 1 hour and again after 2 hours in some experiments. Zymosan A (Sigma #A-8800) was freshly prepared for each experiment as a suspension of 10 mg/ml in PBS. Animals received 50 μl of zymosan (final dose of 500 μg) subcutaneously between the hind foot pads and edema was assessed after 2 hours.
Edema was quantitated by measuring the foot volume immediately prior to administration of PAF or zymosan and at indicated time point post-challenge with PAF or zymosan. Edema is expressed as the increase in foot volume in milliliters. Volume displacement measurements were made on anesthetized animals using a plethysmometer (UGO Basile, model #7150) which measures the displaced water volume of the immersed foot. […] Repeated measurements of the same foot using this technique indicate the precision to be within 5%.
PAF-AH was injected locally between the foot pads, or systematically by IV injection in the tail vein. For local administration rats received 100 μl PAF-AH (4000-6000 U/ml) delivered subcutaneously between the right hind foot pads. Left feet served as controls by administration of 100 μl carrier (buffered salt solution). For systemic administration of PAF-AH, rats received the indicated units of PAF-AH in 300 μL of carrier administered IV in the tail vein. Controls received the appropriate volume of carrier IV in the tail vein.
Rats (N=4) were injected with 100 μl of PAF-AH (4000-6000 U/ml) subcutaneously between the right foot pads. Left feet were injected with 100 μl carrier (buffered salt solution). Four other rats were injected only with carrier. All rats were immediately challenged with PAF via subcutaneous foot injection and foot volumes assessed 1 hour post-challenge. FIG. 4, wherein edema is expressed as average increase in foot volume (ml)±SEM for each treatment group, illustrates that PAF-induced foot edema is blocked by local administration of PAF-AH.
Rats (N=4 per group) were pretreated IV with either PAF-AH (2000 U in 300 μl carrier) or carrier alone, 15 minutes prior to PAF challenge. Edema was assessed 1 and 2 hours after PAF challenge. FIG. 5, wherein edema is expressed as average increase in volume (ml)±SEM for each treatment group, illustrates that IV administration of PAF-AH blocked PAF induced foot edema at one and two hours post challenge. […] Mean volume increase for the PAF-AH treated group at two hours was 0.10 ml±0.08 (SEM), versus 0.56 ml±0.11 for carrier treated controls.
(§2) Rats (N=4 per group) were pretreated IV with either PAF-AH (2000 U in 300 μl carrier) or carrier alone. Fifteen minutes after pretreatment, groups received either PAF or zymosan A, and foot volume was assessed after 1 and 2 hours, respectively.
In two separate experiments, groups of rats (N=3 to 4 per group) were pretreated IV with either serial dilutions of PAF-AH or carrier control in a 300 μl volume, 15 minutes prior to PAF challenge. Both feet were challenged with PAF (as described above) and edema was assessed after 1 hour. […]

[1] = test system: low and high density lipoproteins; experiment: Association with lipoproteins on incubation with DFP-treated human plasma; format: binding; conditions: human plasma previously treated with DFP
Source text: An unusual feature of the native plasma PAF acetylhydrolase is that it is tightly associated with lipoproteins in circulation, and its catalytic efficiency is influenced by the lipoprotein environment. […] PAF-AH protects low density lipoproteins from modification under oxidizing conditions in vitro and may have such a role in vivo. Administration of PAF-AH is thus indicated for the suppression of the oxidation of lipoproteins in atherosclerotic plaques as well as to resolve inflammation.

[2] = test system: zymosan A-induced foot edema; experiment: Zymosan A-induced rat foot edema; format: in vivo; conditions: 2000 U IV, foot volume after 2 hours
Experimental: as §1, with “PAF (Sigma #P-1402) was freshly prepared for each experiment from a 19.1 mM stock solution stored in chloroform/methanol (9:1) at −20° C. Required volumes were dried down under N2, diluted 1:1000 in a buffer containing 150 mM NaCl, 10 nM Tris pH 7.5, and 0.25% BSA, and sonicated for five minutes.” left out, “Zymosan A (Sigma #A-8800) was freshly prepared for each experiment as a suspension of 10 mg/ml in PBS.” left out
Edema was quantitated by measuring the foot volume immediately prior to administration of PAF or zymosan and at indicated time point post-challenge with PAF or zymosan. Edema is expressed as the increase in foot volume in milliliters. […]
as §2

PAF mediated lung injury = experiment: Guinea pig model of acute respiratory distress syndrome (ARDS), BAL protein; format: in vivo; conditions: 2000 units 15 minutes before 400 ng/kg PAF infusion
Experimental: Base on the above observations, an ARDS model in guinea pigs % as developed. A cannula is placed into the jugular vein of anaesthetized male Hartly guinea pigs (approximately 350-400 grams) and PAF diluted in a 500 μl volume of phosphate buffered saline with 0.25% bovine serum albumin as a carrier (PBS-BSA) is infused over a 15 minute period of time at a total dosage ranging from 100-400 ng/kg. At various intervals following PAF infusion, animals are sacrificed and lung tissue is collected. In guinea pigs infused with PAF, dose dependent lung damage and inflammation is clearly evident by 15 minutes and continues to be present at 60 minutes. Neutrophils and red blood cells are present in the alveolar spaces of PAF treated guinea pigs but absent in control or sham infused animals. Evidence of epithelial cell damage is also evident and reminiscent of hyaline membrane formation in human ARDS patients.
Groups of guinea pigs were pretreated with either PAF-AH (2000 units in 500 μl) or 500 μl of the PAF-AH buffer only. Fifteen minutes later these guinea pigs were infused with 400 ng/kg PAF in a 500 μl volume, infused over a 15 minute period. In addition, a sham group of guinea pigs was infused with 500 μl of PBS-BSA. […] To determine protein concentration in the BAL, samples were diluted 1:10 in saline and the OD 280 was determined.

B1: PAF-AH: Recombinant human plasma platelet-activating factor acetylhydrolase (beginning at Ile42) expressed in E. coli from construct pUC trp AH (protein)
chain: IQVLMAAASFGQTKIPRGNGPYSVGCTDLMFDHTNKGTFLRLYYPSQDNDRLDTLWIPNKEYFWGLSKFLGTHWLMGNILRLLFGSMTTPANWNSPLRPGEKYPLVVFSHGLGAFRTLYSAIGIDLASHGFIVAAVEHRDRSASATYYFKDQSAAEIGDKSWLYLRTLKQEEETHIRNEQVRQRAKECSQALSLILDIDHGKPVKNALDLKFDMEQLKDSIDREKIAVIGHSFGGATVIQTLSEDQRFRCGIALDAWMFPLGDEVYSRIPQPLFFINSEYFQYPANIIKMKKCYSPDKERKMITIRGSVHQNFADFTFATGKIIGHMLKLKGDIDSNVAIDLSNKASLAFLQKHLGLHKDFDQWDCLIEGDDENLIPGTNINTTNQHIMLQNSSGIEKYN
Mean increase in volume (PAF-induced foot edema; 2000 U IV 15 minutes prior to PAF, after 1 hour, ±SEM): 0.08 ± 0.02 mL | Mean volume increase (PAF-induced foot edema; 2000 U IV 15 minutes prior to PAF, at two hours, ±SEM): 0.10 mL | IV dose range found to dramatically reduce PAF mediated inflammation (PAF-induced foot edema; IV injections): 160-2000 U/rat | ID50 dosage (PAF-induced foot edema; IV, summary of dosing studies): 40-80 U/rat | PAF-induced edema compared with PAF antagonists (PAF-induced foot edema; PAF-AH 2000 U IV vs CV3988 or Alprazolam 2 mg IP): reduction in PAF-induced edema beyond that afforded by the established PAF antagonists CV3988 and Alprazolam | Plasma concentration predicted to block PAF-elicited edema (PAF-induced foot edema; calculated from plasma volume for 180-200 gram rats): 25-40 U/ml | Increase in foot volume (PAF-induced foot edema; local s.c. 100 μl PAF-AH (4000-6000 U/ml), 1 hour post PAF challenge, ±SEM): 0.08 mL | Duration of protection from PAF induced edema (PAF-induced foot edema; single 2000 U IV dose): at least 24 hours | Association with lipoproteins [1]: associated with low and high density lipoproteins | Effect on zymosan induced edema [2]: failed to block zymosan induced edema | BAL fluid protein concentration (PAF mediated lung injury): 1.13 ± 0.25 mg/mL
